US20250295803A1, “5T4 ANTIBODY-DRUG CONJUGATES AND USES THEREOF” (EXELIXIS, INC., priority 2022, published 2025)

Legend:
[1] = molecular target: T1, unconjugated human TPBG/5T4 protein with a c-terminal polyhistidine and Avi tag (AcroBiosystems Cat. No. … (human, UniProt Q13641 32-355)); experiment: ELISA on coated human 5T4 His-Avi (Acro TPG-H52E5); antibody condition: pH 5.5 Day 1
T1 construct: Bought protein; also called Acro TPGH52E5; Acro Catalog No. TPGH52E; not shown: C-terminal polyhistidine and Avi tag
T1 sequence: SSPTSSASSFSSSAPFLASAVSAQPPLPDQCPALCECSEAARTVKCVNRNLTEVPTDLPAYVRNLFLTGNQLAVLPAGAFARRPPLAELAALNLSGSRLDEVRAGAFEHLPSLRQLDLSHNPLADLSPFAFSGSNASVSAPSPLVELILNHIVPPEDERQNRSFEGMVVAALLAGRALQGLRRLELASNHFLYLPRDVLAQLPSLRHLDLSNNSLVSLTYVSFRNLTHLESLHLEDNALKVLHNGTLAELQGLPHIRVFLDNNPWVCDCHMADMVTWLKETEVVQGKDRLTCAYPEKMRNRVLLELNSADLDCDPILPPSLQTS
Description: (§1) A. Normal Binding Unconjugated antibodies were tested for their ability to bind to human 5T4 (hu5T4) using ELISA. On Day 1, unconjugated human TPBG/5T4 protein with a c-terminal polyhistidine and Avi (AVITAG™) tag (AcroBiosystems (Newark, DE, USA), Cat. No. TPG-H52E5) was diluted 2 μg/mL in PBS, mixed thoroughly, plated 100 μL per well in a 96-well plate (Nunc MAXISORP®) and incubated overnight at 4° C.

[2] = molecular target: T1, unconjugated human TPBG/5T4 protein …; experiment: ELISA on coated human 5T4 His-Avi (Acro TPG-H52E5); antibody condition: pH 5.5 Day 0
Description: as §1
2. Low pH Stress Test. Several unconjugated antibodies were tested for their ability to bind to 5T4 using ELISA under acidic (low pH) conditions. Solutions of 1 mg/mL to 10 mg/mL of antibody in […] were prepared and stored at 37° C. for 1 to 2 weeks.

[3] = test system: MCF-7 cells; experiment: Cell binding (flow cytometry), MCF-7 cells; assay type: cell-based
Description: Antibodies that were selected for binding to 5T4, for example, such as those described in Example 2, were evaluated for binding to cells that express 5T4. Cells were harvested at 70-90% confluence on the day of the assay. In a v-bottom 96-well plate (Costar 3897), 100,000 cells per well were incubated with 50 μL per well 8- or 12-point antibody dilution series for 30 minutes at +4° C. After incubation, cells were washed once with PBS by centrifugation at 200×g for 5 minutes. Cells were then incubated with 50 μL per well of Alexa Fluor 488 Goat anti-human IgG Fab (Jackson Immuno Research 109-547-003) at 1:100 dilution for 30 minutes at +4° C. Cells were washed twice with PBS by centrifugation at 200×g for 5 minutes and were acquired on iQue Screener Plus (Sartorius). Mean fluorescence intensities of BL1 (Alexa-Fluor-488) channel were plotted against antibody concentrations to generate a dose response curve and EC50 values.

[4] = molecular target: T2, HEK293 and CHO cells transfected to express human 5T4 (Homo sapiens, UniProt Q13641); experiment: Cell binding to transfected HEK293 and CHO cells, human 5T4; assay type: cell-based
T2 construct: expressed in transfected cells; host or cells: HEK293 and CHO
T2 sequence (Q13641 32-420): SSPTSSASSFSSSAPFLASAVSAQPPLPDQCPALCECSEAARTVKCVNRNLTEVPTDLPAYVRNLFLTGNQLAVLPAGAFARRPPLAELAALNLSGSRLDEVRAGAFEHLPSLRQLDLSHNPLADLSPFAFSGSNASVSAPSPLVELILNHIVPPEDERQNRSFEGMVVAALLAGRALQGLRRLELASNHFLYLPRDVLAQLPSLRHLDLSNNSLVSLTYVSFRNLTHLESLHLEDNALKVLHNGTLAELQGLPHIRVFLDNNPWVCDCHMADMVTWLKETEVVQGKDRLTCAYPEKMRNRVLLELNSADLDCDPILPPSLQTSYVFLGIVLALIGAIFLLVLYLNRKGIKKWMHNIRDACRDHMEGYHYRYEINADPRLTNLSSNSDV
Description: (§2) Unconjugated antibodies were tested for their ability to bind to HEK293 and CHO cells transfected to express human, cyno, rat, or mouse 5T4.

[5] = molecular target: T3, HEK293 and CHO cells transfected to express mouse 5T4 (Mus musculus, UniProt Q9Z0L0); experiment: Cell binding to transfected HEK293 and CHO cells, mouse 5T4; assay type: cell-based
T3 construct: expressed in transfected cells; host or cells: HEK293 and CHO
T3 sequence (Q9Z0L0 32-426): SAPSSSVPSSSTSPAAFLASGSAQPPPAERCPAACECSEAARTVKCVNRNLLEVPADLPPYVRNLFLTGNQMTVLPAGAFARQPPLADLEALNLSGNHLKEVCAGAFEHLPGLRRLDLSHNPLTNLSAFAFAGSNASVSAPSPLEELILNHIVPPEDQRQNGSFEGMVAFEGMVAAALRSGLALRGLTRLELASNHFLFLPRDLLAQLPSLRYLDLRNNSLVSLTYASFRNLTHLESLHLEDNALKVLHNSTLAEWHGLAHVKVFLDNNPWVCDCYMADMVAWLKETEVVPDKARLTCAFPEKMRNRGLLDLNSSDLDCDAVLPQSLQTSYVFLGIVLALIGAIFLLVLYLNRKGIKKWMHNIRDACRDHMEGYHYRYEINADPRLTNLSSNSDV
Description: as §2

| Molecule | EC50 [1] [nM] | EC50 [2] [nM] | binding to MCF-7 cells [3] | reactivity to cells transfected to express human 5T4 [4] | reactivity to cells transfected to express mouse 5T4 [5] |
| --- | --- | --- | --- | --- | --- |
| mAbA17 (antibody, V domains shown, also called Antibody mAbA17) VH: EVQLVESGGGLVQPGGSLRLSCAASGFTFSRYWIHWVRQAPGKGLEWVAAIFPYSGSTLYADSVKGRFTISADTSKNTAYLQMNSLRAEDTAVYYCARSPSRSILPSGLDYWGQGTLVTVSS VL: DIQMTQSPSSLSASVGDRVTITCRASQSVSSAVAWYQQKPGKAPKLLIYSASSLYSGVPSRFSGSRSGTDFTLTISSLQPEDFATYYCQQGDGSPYTFGQGTKVEIKR | 0.159 | 0.164 |  |  |  |
| mAbA4 (antibody, V domains shown, also called Antibody mAbA4) VH: EVQLVESGGGLVQPGGSLRLSCAASGFTFSRYYIHWVRQAPGKGLEWVAFISPGGSYTYYADSVKGRFTISADTSKNTAYLQMNSLRAEDTAVYYCAREYYSMGVLDYWGQGTLVTVSS VL: DIQMTQSPSSLSASVGDRVTITCRASQSVSSAVAWYQQKPGKAPKLLIYSASSLYSGVPSRFSGSRSGTDFTLTISSLQPEDFATYYCQQAYESPYTFGQGTKVEIKR | 0.132 | 0.133 |  |  |  |
| mAbA15 (antibody, V domains shown, also called Antibody mAbA15) VH: EVQLVESGGGLVQPGGSLRLSCAASGFTFSSYYIHWVRQAPGKGLEWVAYITSTGSYTEYADSVKGRFTISADTSKNTAYLQMNSLRAEDTAVYYCARYDRSTRYSGLDYWGQGTLVTVSS VL: DIQMTQSPSSLSASVGDRVTITCRASQSVSSAVAWYQQKPGKAPKLLIYSASSLYSGVPSRFSGSRSGTDFTLTISSLQPEDFATYYCQQAYATPVTFGQGTKVEIKR | 0.134 | 0.124 |  |  |  |
| mAbA4: 5T4 antibody comprising VH of SEQ ID NO:25 and VL of SEQ ID NO:26 (antibody, V domains shown, Antibody mAbA4 VH Sequence; Antibody mAbA4 VL Sequence) VH: EVQLVESGGGLVQPGGSLRLSCAASGFTFSRYYIHWVRQAPGKGLEWVAFISPGGSYTYYADSVKGRFTISADTSKNTAYLQMNSLRAEDTAVYYCAREYYSMGVLDYWGQGTLVTVSS VL: DIQMTQSPSSLSASVGDRVTITCRASQSVSSAVAWYQQKPGKAPKLLIYSASSLYSGVPSRFSGSRSGTDFTLTISSLQPEDFATYYCQQAYESPYTFGQGTKVEIK |  |  | binding | reactive | not to cells transfected to express rat or mouse 5T4 |
| mAbA15: 5T4 antibody comprising VH of SEQ ID NO:44 and VL of SEQ ID NO:45 (antibody, V domains shown, Antibody mAbA15 VH Sequence; Antibody mAbA15 VL Sequence) VH: EVQLVESGGGLVQPGGSLRLSCAASGFTFSSYYIHWVRQAPGKGLEWVAYITSTGSYTEYADSVKGRFTISADTSKNTAYLQMNSLRAEDTAVYYCARYDRSTRYSGLDYWGQGTLVTVSS VL: DIQMTQSPSSLSASVGDRVTITCRASQSVSSAVAWYQQKPGKAPKLLIYSASSLYSGVPSRFSGSRSGTDFTLTISSLQPEDFATYYCQQAYATPVTFGQGTKVEIK |  |  | binding | reactive | not to cells transfected to express rat or mouse 5T4 |
| mAbA17: 5T4 antibody comprising VH of SEQ ID NO:62 and VL of SEQ ID NO:63 (antibody, V domains shown, Antibody mAbA17 VH Sequence; Antibody mAbA17 VL Sequence) VH: EVQLVESGGGLVQPGGSLRLSCAASGFTFSRYWIHWVRQAPGKGLEWVAAIFPYSGSTLYADSVKGRFTISADTSKNTAYLQMNSLRAEDTAVYYCARSPSRSILPSGLDYWGQGTLVTVSS VL: DIQMTQSPSSLSASVGDRVTITCRASQSVSSAVAWYQQKPGKAPKLLIYSASSLYSGVPSRFSGSRSGTDFTLTISSLQPEDFATYYCQQGDGSPYTFGQGTKVEIK |  |  | binding | reactive | not to cells transfected to express rat or mouse 5T4 |
